*1 amine or outer side, *2 acyl side, *3 side chain or, on linkers, in order; H or OH if unused. [ ]: non-standard residue; d: D form. The star is where a group is joined. C20 diacid = O=C(O)CCCCCCCCCCCCCCCCCCC(=O)*; C18 diacid = O=C(O)CCCCCCCCCCCCCCCCC(=O)*; γGlu = O=C(O)[C@H](CCC(=O)[*:2])N[*:1]; βAsp = O=C(O)[C@H](CC(=O)[*:2])N[*:1]; AEEA = NCCOCCOCC(=O)O

The record followed here is EP4692114A1, “CALCITONIN ANALOGUE, AND DERIVATIVE THEREOF AND USE THEREOF” (Hangzhou Sciwind Biosciences Co., Ltd., priority 2023, dated 2024).

T1: human amylin receptor (AMY3) on CHO-K1/Gal5/AMY3 cells (human, UniProt P30988 25-474; O60896 24-148)
T1 sequence (looked up) 1: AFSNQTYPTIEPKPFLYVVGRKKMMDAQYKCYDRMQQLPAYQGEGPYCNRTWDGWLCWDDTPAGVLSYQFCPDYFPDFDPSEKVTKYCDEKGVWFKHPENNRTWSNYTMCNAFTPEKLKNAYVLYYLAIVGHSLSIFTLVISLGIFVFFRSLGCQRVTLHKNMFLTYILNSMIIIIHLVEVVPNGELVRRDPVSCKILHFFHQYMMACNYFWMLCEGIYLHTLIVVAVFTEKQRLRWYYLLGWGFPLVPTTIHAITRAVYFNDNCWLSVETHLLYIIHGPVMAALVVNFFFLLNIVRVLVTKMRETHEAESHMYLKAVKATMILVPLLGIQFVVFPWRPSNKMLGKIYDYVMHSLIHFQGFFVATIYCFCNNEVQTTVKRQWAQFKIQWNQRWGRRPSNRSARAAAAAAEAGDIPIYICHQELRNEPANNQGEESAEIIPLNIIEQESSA
T1 sequence (looked up) 2: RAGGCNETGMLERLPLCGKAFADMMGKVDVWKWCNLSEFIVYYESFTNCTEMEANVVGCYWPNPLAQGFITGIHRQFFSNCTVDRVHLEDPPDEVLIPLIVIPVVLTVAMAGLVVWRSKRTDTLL

B1: calcitonin derivative M58 (peptide)
peptide: {C20 diacid}-E[AEEA][AEEA]ASQLSTAVLGRLSEELHRLQDYPRTDVGSGSP-NH2
SMILES: CC(C)C[C@H](NC(=O)[C@H](CCCNC(=N)N)NC(=O)CNC(=O)[C@H](CC(C)C)NC(=O)[C@@H](NC(=O)[C@H](C)NC(=O)[C@@H](NC(=O)[C@H](CO)NC(=O)[C@H](CC(C)C)NC(=O)[C@H](CCC(N)=O)NC(=O)[C@H](CO)NC(=O)[C@H](C)NC(=O)COCCOCCNC(=O)COCCOCCNC(=O)[C@H](CCC(=O)O)NC(=O)CCCCCCCCCCCCCCCCCCC(=O)O)[C@@H](C)O)C(C)C)C(=O)N[C@@H](CO)C(=O)N[C@@H](CCC(=O)O)C(=O)N[C@@H](CCC(=O)O)C(=O)N[C@@H](CC(C)C)C(=O)N[C@@H](Cc1c[nH]cn1)C(=O)N[C@@H](CCCNC(=N)N)C(=O)N[C@@H](CC(C)C)C(=O)N[C@@H](CCC(N)=O)C(=O)N[C@@H](CC(=O)O)C(=O)N[C@@H](Cc1ccc(O)cc1)C(=O)N1CCC[C@H]1C(=O)N[C@@H](CCCNC(=N)N)C(=O)N[C@H](C(=O)N[C@@H](CC(=O)O)C(=O)N[C@H](C(=O)NCC(=O)N[C@@H](CO)C(=O)NCC(=O)N[C@@H](CO)C(=O)N1CCC[C@H]1C(N)=O)C(C)C)[C@@H](C)O
B2: calcitonin derivative M36 (peptide)
peptide: {C20 diacid-γGlu}-KSQLSTEVLGRLSQELHRLQDYPRTDVGSGSP-NH2
SMILES: CC(C)C[C@H](NC(=O)[C@H](CCCNC(=N)N)NC(=O)CNC(=O)[C@H](CC(C)C)NC(=O)[C@@H](NC(=O)[C@H](CCC(=O)O)NC(=O)[C@@H](NC(=O)[C@H](CO)NC(=O)[C@H](CC(C)C)NC(=O)[C@H](CCC(N)=O)NC(=O)[C@H](CO)NC(=O)[C@H](CCCCN)NC(=O)CC[C@H](NC(=O)CCCCCCCCCCCCCCCCCCC(=O)O)C(=O)O)[C@@H](C)O)C(C)C)C(=O)N[C@@H](CO)C(=O)N[C@@H](CCC(N)=O)C(=O)N[C@@H](CCC(=O)O)C(=O)N[C@@H](CC(C)C)C(=O)N[C@@H](Cc1c[nH]cn1)C(=O)N[C@@H](CCCNC(=N)N)C(=O)N[C@@H](CC(C)C)C(=O)N[C@@H](CCC(N)=O)C(=O)N[C@@H](CC(=O)O)C(=O)N[C@@H](Cc1ccc(O)cc1)C(=O)N1CCC[C@H]1C(=O)N[C@@H](CCCNC(=N)N)C(=O)N[C@H](C(=O)N[C@@H](CC(=O)O)C(=O)N[C@H](C(=O)NCC(=O)N[C@@H](CO)C(=O)NCC(=O)N[C@@H](CO)C(=O)N1CCC[C@H]1C(N)=O)C(C)C)[C@@H](C)O
B3: calcitonin derivative M25 (peptide)
peptide: {C20 diacid-γGlu}-LSQLSTLVLGRLSQELHRLQDYPRTDVGSGSP-NH2
SMILES: CC(C)C[C@H](NC(=O)CC[C@H](NC(=O)CCCCCCCCCCCCCCCCCCC(=O)O)C(=O)O)C(=O)N[C@@H](CO)C(=O)N[C@@H](CCC(N)=O)C(=O)N[C@@H](CC(C)C)C(=O)N[C@@H](CO)C(=O)N[C@H](C(=O)N[C@@H](CC(C)C)C(=O)N[C@H](C(=O)N[C@@H](CC(C)C)C(=O)NCC(=O)N[C@@H](CCCNC(=N)N)C(=O)N[C@@H](CC(C)C)C(=O)N[C@@H](CO)C(=O)N[C@@H](CCC(N)=O)C(=O)N[C@@H](CCC(=O)O)C(=O)N[C@@H](CC(C)C)C(=O)N[C@@H](Cc1c[nH]cn1)C(=O)N[C@@H](CCCNC(=N)N)C(=O)N[C@@H](CC(C)C)C(=O)N[C@@H](CCC(N)=O)C(=O)N[C@@H](CC(=O)O)C(=O)N[C@@H](Cc1ccc(O)cc1)C(=O)N1CCC[C@H]1C(=O)N[C@@H](CCCNC(=N)N)C(=O)N[C@H](C(=O)N[C@@H](CC(=O)O)C(=O)N[C@H](C(=O)NCC(=O)N[C@@H](CO)C(=O)NCC(=O)N[C@@H](CO)C(=O)N1CCC[C@H]1C(N)=O)C(C)C)[C@@H](C)O)C(C)C)[C@@H](C)O
B4: calcitonin derivative M26 (peptide)
peptide: {C20 diacid-γGlu}-VSQLSTVVLGRLSQELHRLQDYPRTDVGSGSP-NH2
SMILES: CC(C)C[C@H](NC(=O)[C@H](CCCNC(=N)N)NC(=O)CNC(=O)[C@H](CC(C)C)NC(=O)[C@@H](NC(=O)[C@@H](NC(=O)[C@@H](NC(=O)[C@H](CO)NC(=O)[C@H](CC(C)C)NC(=O)[C@H](CCC(N)=O)NC(=O)[C@H](CO)NC(=O)[C@@H](NC(=O)CC[C@H](NC(=O)CCCCCCCCCCCCCCCCCCC(=O)O)C(=O)O)C(C)C)[C@@H](C)O)C(C)C)C(C)C)C(=O)N[C@@H](CO)C(=O)N[C@@H](CCC(N)=O)C(=O)N[C@@H](CCC(=O)O)C(=O)N[C@@H](CC(C)C)C(=O)N[C@@H](Cc1c[nH]cn1)C(=O)N[C@@H](CCCNC(=N)N)C(=O)N[C@@H](CC(C)C)C(=O)N[C@@H](CCC(N)=O)C(=O)N[C@@H](CC(=O)O)C(=O)N[C@@H](Cc1ccc(O)cc1)C(=O)N1CCC[C@H]1C(=O)N[C@@H](CCCNC(=N)N)C(=O)N[C@H](C(=O)N[C@@H](CC(=O)O)C(=O)N[C@H](C(=O)NCC(=O)N[C@@H](CO)C(=O)NCC(=O)N[C@@H](CO)C(=O)N1CCC[C@H]1C(N)=O)C(C)C)[C@@H](C)O
B5: calcitonin derivative M11 (peptide)
peptide: {C20 diacid-γGlu}-ASQLSTAVLGRLSSELHRLQDYPRTDVGSGSP-NH2
SMILES: CC(C)C[C@H](NC(=O)[C@H](CCCNC(=N)N)NC(=O)CNC(=O)[C@H](CC(C)C)NC(=O)[C@@H](NC(=O)[C@H](C)NC(=O)[C@@H](NC(=O)[C@H](CO)NC(=O)[C@H](CC(C)C)NC(=O)[C@H](CCC(N)=O)NC(=O)[C@H](CO)NC(=O)[C@H](C)NC(=O)CC[C@H](NC(=O)CCCCCCCCCCCCCCCCCCC(=O)O)C(=O)O)[C@@H](C)O)C(C)C)C(=O)N[C@@H](CO)C(=O)N[C@@H](CO)C(=O)N[C@@H](CCC(=O)O)C(=O)N[C@@H](CC(C)C)C(=O)N[C@@H](Cc1c[nH]cn1)C(=O)N[C@@H](CCCNC(=N)N)C(=O)N[C@@H](CC(C)C)C(=O)N[C@@H](CCC(N)=O)C(=O)N[C@@H](CC(=O)O)C(=O)N[C@@H](Cc1ccc(O)cc1)C(=O)N1CCC[C@H]1C(=O)N[C@@H](CCCNC(=N)N)C(=O)N[C@H](C(=O)N[C@@H](CC(=O)O)C(=O)N[C@H](C(=O)NCC(=O)N[C@@H](CO)C(=O)NCC(=O)N[C@@H](CO)C(=O)N1CCC[C@H]1C(N)=O)C(C)C)[C@@H](C)O
B6: calcitonin derivative M59 (peptide)
peptide: {C20 diacid-βAsp-AEEA-AEEA}-ASQLSTAVLGRLSEELHRLQDYPRTDVGSGSP-NH2
SMILES: CC(C)C[C@H](NC(=O)[C@H](CCCNC(=N)N)NC(=O)CNC(=O)[C@H](CC(C)C)NC(=O)[C@@H](NC(=O)[C@H](C)NC(=O)[C@@H](NC(=O)[C@H](CO)NC(=O)[C@H](CC(C)C)NC(=O)[C@H](CCC(N)=O)NC(=O)[C@H](CO)NC(=O)[C@H](C)NC(=O)COCCOCCNC(=O)COCCOCCNC(=O)C[C@H](NC(=O)CCCCCCCCCCCCCCCCCCC(=O)O)C(=O)O)[C@@H](C)O)C(C)C)C(=O)N[C@@H](CO)C(=O)N[C@@H](CCC(=O)O)C(=O)N[C@@H](CCC(=O)O)C(=O)N[C@@H](CC(C)C)C(=O)N[C@@H](Cc1c[nH]cn1)C(=O)N[C@@H](CCCNC(=N)N)C(=O)N[C@@H](CC(C)C)C(=O)N[C@@H](CCC(N)=O)C(=O)N[C@@H](CC(=O)O)C(=O)N[C@@H](Cc1ccc(O)cc1)C(=O)N1CCC[C@H]1C(=O)N[C@@H](CCCNC(=N)N)C(=O)N[C@H](C(=O)N[C@@H](CC(=O)O)C(=O)N[C@H](C(=O)NCC(=O)N[C@@H](CO)C(=O)NCC(=O)N[C@@H](CO)C(=O)N1CCC[C@H]1C(N)=O)C(C)C)[C@@H](C)O
B7: calcitonin derivative M42 (peptide)
peptide: {C18 diacid}-EASQLSTAVLGRLSDELHRLQDYPRTDVGSGSP-NH2
SMILES: CC(C)C[C@H](NC(=O)[C@H](CCCNC(=N)N)NC(=O)CNC(=O)[C@H](CC(C)C)NC(=O)[C@@H](NC(=O)[C@H](C)NC(=O)[C@@H](NC(=O)[C@H](CO)NC(=O)[C@H](CC(C)C)NC(=O)[C@H](CCC(N)=O)NC(=O)[C@H](CO)NC(=O)[C@H](C)NC(=O)[C@H](CCC(=O)O)NC(=O)CCCCCCCCCCCCCCCCC(=O)O)[C@@H](C)O)C(C)C)C(=O)N[C@@H](CO)C(=O)N[C@@H](CC(=O)O)C(=O)N[C@@H](CCC(=O)O)C(=O)N[C@@H](CC(C)C)C(=O)N[C@@H](Cc1c[nH]cn1)C(=O)N[C@@H](CCCNC(=N)N)C(=O)N[C@@H](CC(C)C)C(=O)N[C@@H](CCC(N)=O)C(=O)N[C@@H](CC(=O)O)C(=O)N[C@@H](Cc1ccc(O)cc1)C(=O)N1CCC[C@H]1C(=O)N[C@@H](CCCNC(=N)N)C(=O)N[C@H](C(=O)N[C@@H](CC(=O)O)C(=O)N[C@H](C(=O)NCC(=O)N[C@@H](CO)C(=O)NCC(=O)N[C@@H](CO)C(=O)N1CCC[C@H]1C(N)=O)C(C)C)[C@@H](C)O

In this assay the target is T1, human amylin receptor (AMY3) on …. As to the kind of experiment: cell-based or functional assay.
For B1, the “EC50/nM, CRE-luciferase in amylin receptor/CRE-luc CHO cells” value came out at 0.017 nM.
Take B2: the “EC50/nM, CRE-luciferase in amylin receptor/CRE-luc CHO cells” value worked out at 0.032 nM.
In the case of B3 it was 0.016 nM.
As for B4, the “EC50/nM, CRE-luciferase in amylin receptor/CRE-luc CHO cells” value worked out at 0.079 nM.
In the case of B5 it was 0.017 nM.
The same measure for B6: 0.017 nM.
The same measure for B7: 0.016 nM.
